Assays:
[1] = target: T1, recombinant SARS-CoV-2 RBD protein (wild-type) (SARS-CoV-2; human, UniProt P0DTC2 306-543); assay: ELISA (FIG. 18B)
T1 construct: range 306-543

[2] = target: T1, recombinant SARS-CoV-2 RBD protein …; assay: ELISA (FIG. 18E)
[3] = target: T1, recombinant SARS-CoV-2 RBD protein …; assay: ELISA (FIG. 18A)
[4] = target: T1, recombinant SARS-CoV-2 RBD protein …; assay: ELISA (FIG. 18C)

B1: A-2F1 antibody (format in FIG. 18 not stated) (antibody, V domains shown)
VH: QVQLVQSGGGLIQPGGSLRLSCAASGVTVSSNYMSWVRQAPGKGLEWVSVIYSGGSTFYADSVKGRFTISRDNSKNTLYLQMNSLRAEDTAVYYCARDLMEAGGMDVWGQGSTVTVSS
VL: ELALTQPPSASGSPGQSVTISCTASSSDIGASNHVAWYQQNPGKAPKLMIYGVSGRPSGVPDRFSGSKSGNTASLTVSGLQAEDEADYYCSSYAGSNILIFGGGTKLTVL
[1]
  binding result: binds

B2: E-3G9 antibody (format in FIG. 18 not stated) (antibody, V domains shown)
VH: QMQLVQSGAEVKKPGASVKVSCKASGHTITSYYMHWVRQAPGQGLEWMGIINPSGGSTSYAQKFQGRVTMTRDTSTSTVYMELSSLRSEDTAVYYCAREGVWDSSGYSSFDYWGQGTLVTVSS
VL: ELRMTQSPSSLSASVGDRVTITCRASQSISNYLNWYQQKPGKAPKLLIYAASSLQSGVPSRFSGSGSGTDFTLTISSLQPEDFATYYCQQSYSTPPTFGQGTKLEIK
[2]
  binding result: binds

B3: A-1H4 antibody (format in FIG. 18 not stated) (antibody, V domains shown)
VH: EVQLVESGGGLVQPGRSLRLSCAASGFTVSSNYMSWVRQAPGKGLEWVSGIYSGGSTYYADSVKGRFTISRDNSKNTLYLQMNSLRAEDTAVYYCARDLQEAGAFDIWGQGTMVTVSS
VL: ELQLTQSPSFLSASVGDRVTITCRASQGISSYLAWYQQKPGKAPKLLIYAASTLQSGVPSRFSGSGSGTEFTLTISSLQPEDFATYYCQQLNSYPRLTFGGGTKVEIK
[3]
  binding result: binds

B4: A-2H4 antibody (format in FIG. 18 not stated) (antibody, V domains shown)
VH: QMQLVESGGGLVQPGRSLRLSCAASGFTFSVYGMHWVRQAPGKGLEWVAVISYDGSNKYYADSVKGRFSISRDNSKNTLYLQMNSLRGEDTAVYYCAKGGPRPVVKAYGELDYYGMDVWGQGTTVTVSS
VL: ELALTQPASVSGSPGQSITISCTGTSSDIGGYEYVSWYQQHPGKAPKLIIYDVRDRPSGISNRFSGSKSGNTASLIISSLQAGDEADYYCFSYTSSGTYVFGSATKVTVL
[4]
  binding result: binds
